Article PMC3711457, “Control of DNA minor groove width and Fis protein binding by the purine 2-amino group” (Nucleic Acids Research, 2013)

Columns and labels:
Fis-K90A [1] = molecular target: T1, Fis-K90A (UniProt P0A6R3 1-98, K90A); assay: EMSA; 50 ug/ml poly dI/dC; essentially abolished; EMSA with 50 ug/ml poly dI/dC as in ref 19; buffer, salt, pH and temperature not stated in the material; details: protein: recombinant; chain copies: 2; label: 32P; 27 bp duplex
Fis (wild type) [2] = molecular target: T2, Fis (wild type) (UniProt P0A6R3 1-98); assay: X-ray crystallography; 2.7 A; EMSA with 50 ug/ml poly dI/dC as in ref 19; buffer, salt, pH and temperature not stated in the material; details: protein: recombinant; chain copies: 2; label: 32P; 27 bp duplex
Fis-K90A [3] = molecular target: T1, Fis-K90A; assay: EMSA; 50 ug/ml poly dI/dC; EMSA with 50 ug/ml poly dI/dC as in ref 19; buffer, salt, pH and temperature not stated in the material; details: protein: recombinant; chain copies: 2; label: 32P; 27 bp duplex
Fis (wild type) [4] = molecular target: T2, Fis (wild type); assay: EMSA; 50 ug/ml poly dI/dC; high-affinity reference, Kd in figure only; EMSA with 50 ug/ml poly dI/dC as in ref 19; buffer, salt, pH and temperature not stated in the material; details: protein: recombinant; chain copies: 2; label: 32P; 27 bp duplex
Fis-K90A [5] = molecular target: T1, Fis-K90A; assay: EMSA; 50 ug/ml poly dI/dC; EMSA with 50 ug/ml poly dI/dC as in ref 19; buffer, salt, pH and temperature not stated in the material; details: protein: recombinant; chain copies: 2; duplex
Fis (wild type) [6] = molecular target: T2, Fis (wild type); assay: as above; details: protein: recombinant; chain copies: 2; duplex
Fis (wild type) [7] = molecular target: T2, Fis (wild type); assay: EMSA; 50 ug/ml poly dI/dC; 60-fold better than F28; half-life 14 min; EMSA with 50 ug/ml poly dI/dC as in ref 19; buffer, salt, pH and temperature not stated in the material; details: protein: recombinant; chain copies: 2; label: 32P; 27 bp duplex
Fis-K90A [8] = molecular target: T1, Fis-K90A; assay: EMSA; 50 ug/ml poly dI/dC; binding largely restored; EMSA with 50 ug/ml poly dI/dC as in ref 19; buffer, salt, pH and temperature not stated in the material; details: protein: recombinant; chain copies: 2; label: 32P; 27 bp duplex
[9] = molecular target: the molecule itself; assay: crystal structure; Fis co-crystallized with DNA duplexes F28, F28-dI, F28-2AP and F29-dI; data collected at 100 K; molecular replacement with Fis-F1 (PDB 3IV5)
Fis (wild type) [10] = molecular target: T2, Fis (wild type); assay: EMSA; 50 ug/ml poly dI/dC; 230-fold better than F29; half-life 5 min; EMSA with 50 ug/ml poly dI/dC as in ref 19; buffer, salt, pH and temperature not stated in the material; details: protein: recombinant; chain copies: 2; label: 32P; duplex
Fis (wild type) [11] = molecular target: T2, Fis (wild type); assay: X-ray crystallography; 2.8 A; EMSA with 50 ug/ml poly dI/dC as in ref 19; buffer, salt, pH and temperature not stated in the material; details: protein: recombinant; chain copies: 2; label: 32P; duplex

B1: F28 (dsDNA)
DNA 1: AAATTTGTTTGAGCGTTGAGCAAATTT
DNA 2: AAATTTGCTCAACGCTCAAACAAATTT
- binding result (Fis-K90A [1]): no binding
- binding result (Fis (wild type) [2]): binds

B2: F1 (dsDNA)
DNA 1: AAATTTGTTTGAATTTTGAGCAAATTT
DNA 2: AAATTTGCTCAAAATTCAAACAAATTT
- binding signal (Fis-K90A [3]): ~1 fold of Fis-wt (indistinguishable)
- binding result (Fis (wild type) [4]): binds

B3: F27 (dsDNA)
DNA 1: AAATTTGTTTGAACTTTGAGCAAATTT
DNA 2: AAATTTGCTCAAAGTTCAAACAAATTT
- binding signal (Fis-K90A [5]): 10 fold worse than Fis-wt
- binding signal (Fis (wild type) [6]): ~1 fold of F1 (indistinguishable)

B4: F28-dI (dsDNA)
DNA 1: AAATTTGTTTGAGCGTTGAGCAAATTT
DNA 2: AAATTTGCTCAACGCTCAAACAAATTT
modifications: inosine replaces the guanines of the three central G/C pairs (ICI), on both strands
- Kd (Fis (wild type) [7]): < 1 nM
- binding result (Fis-K90A [8]): binds

B5: F30 (dsDNA)
DNA 1: AAAGCGGTTTGAATTTTGAGCCGCTTT
DNA 2: AAAGCGGCTCAAAATTCAAACCGCTTT
- binding signal (Fis-K90A [5]): 9 fold worse than Fis-wt

B6: Fis protein (natural protein)
chain: MFEQRVNSDVLTVSTVNSQDQVTQKPLRDSVKQALKNYFAQLNGQDVNDLYELVLAEVEQPLLDMVMQYTRGNQTRAALMMGINRGTLRKKLKKYGMN
notes: also called Fis-wt; wild-type Fis
- binding result [9]: binds

B7: F29-dI (dsDNA)
DNA 1: AAATTTGTTTGGGCGCTGAGCAAATTT
DNA 2: AAATTTGCTCAGCGCCCAAACAAATTT
modifications: inosine replaces the guanines of the five central G/C pairs (IICIC), on both strands
- binding signal (Fis (wild type) [10]): ~8 fold worse than F1

B8: F28-2AP (dsDNA)
DNA 1: AAATTTGTTTGAATATTGAGCAAATTT
DNA 2: AAATTTGCTCAATATTCAAACAAATTT
modifications: 2-aminopurine in three central 2AP/T pairs (2T2), on both strands
- binding result (Fis (wild type) [11]): binds
